Sequences and labels used below:
B1: NET1 (parent)
chain: PTPAKRRSSALWSEMLDITMKESL
B2: MYBL2 (parent)
chain: IAKHLKGRLGKQCRERWHNHLNPE
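Also: lentivirally expressed fusions sorted by FACS into six bins by GFP to DsRed ratio, PSI derived from sequencing read proportions per bin multiplied by bin number.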

In the first data set the parent is B1. In words: protein stability index of a GFP-peptide fusion (GPS, HEK-293T) (PSI 1-6); higher = more stable. Particulars: c terminus: a fixed tail appended.
As for PTPAKRRSSALWSEMLDITMKESY [L24Y], the protein stability index came to 1.88.

The variants in another data set derive from B2. The description is as above. Particulars: c terminus: a fixed tail appended.
Take RAKHLKGRLGKQCRERWHNHLNPE [I1R]: the protein stability index was 2.1.
On to PAKHLKGRLGKQCRERWHNHLNPE [I1P], for which the protein stability index was found to be 2.6.
For FAKHLKGRLGKQCRERWHNHLNPE [I1F], the protein stability index worked out at 2.7.
The same measure, in the same setting: the result for YAKHLKGRLGKQCRERWHNHLNPE [I1Y] reads 1.56; that for TAKHLKGRLGKQCRERWHNHLNPE [I1T], 2.64.
For the variant QAKHLKGRLGKQCRERWHNHLNPE [I1Q], the protein stability index came out at 2.64.
In the case of KAKHLKGRLGKQCRERWHNHLNPE [I1K], the protein stability index was 2.18.
Regarding VAKHLKGRLGKQCRERWHNHLNPE [I1V], the protein stability index came out at 2.54.
For NAKHLKGRLGKQCRERWHNHLNPE [I1N], the protein stability index was found to be 2.45.
Regarding GAKHLKGRLGKQCRERWHNHLNPE [I1G], the protein stability index came to 2.4.
Take AAKHLKGRLGKQCRERWHNHLNPE [I1A]: the protein stability index stood at 2.37.
On the same count and under the same terms, the result for LAKHLKGRLGKQCRERWHNHLNPE [I1L] reads 1.67; that for MAKHLKGRLGKQCRERWHNHLNPE [I1M], 2.58.
In the case of WAKHLKGRLGKQCRERWHNHLNPE [I1W], the protein stability index was found to be 1.36.
The same measure, in the same setting: the result for HAKHLKGRLGKQCRERWHNHLNPE [I1H] reads 2.19; that for SAKHLKGRLGKQCRERWHNHLNPE [I1S], 2.17; that for EAKHLKGRLGKQCRERWHNHLNPE [I1E], 2.53.
Turning to CAKHLKGRLGKQCRERWHNHLNPE [I1C], the protein stability index is 1.49.
Consider DAKHLKGRLGKQCRERWHNHLNPE [I1D], for which the protein stability index amounted to 2.06.
Turning to IAKHSKGRLGKQCRERWHNHLNPE [L5S], the protein stability index turned out to be 2.29.
On the same count and under the same terms, next, IAKHDKGRLGKQCRERWHNHLNPE [L5D]: 2.7; IAKHFKGRLGKQCRERWHNHLNPE [L5F]: 1.67; IAKHWKGRLGKQCRERWHNHLNPE [L5W]: 1.84.
In the case of IAKHAKGRLGKQCRERWHNHLNPE [L5A], the protein stability index was 2.18.
As to IAKHTKGRLGKQCRERWHNHLNPE [L5T], the protein stability index is 2.35.
The same measure, in the same setting: the result for IAKHCKGRLGKQCRERWHNHLNPE [L5C] reads 1.9; that for IAKHPKGRLGKQCRERWHNHLNPE [L5P], 2.07; that for IAKHQKGRLGKQCRERWHNHLNPE [L5Q], 1.87.
Same read-out and setting: the result for IAKHNKGRLGKQCRERWHNHLNPE [L5N] reads 2.38.
On to IAKHRKGRLGKQCRERWHNHLNPE [L5R], for which the protein stability index worked out at 2.7.
Turning to IAKHMKGRLGKQCRERWHNHLNPE [L5M], the protein stability index amounted to 1.72.
On the same count and under the same terms, next, IAKHVKGRLGKQCRERWHNHLNPE [L5V]: 2.18; IAKHIKGRLGKQCRERWHNHLNPE [L5I]: 1.75.
For IAKHEKGRLGKQCRERWHNHLNPE [L5E], the protein stability index came to 2.49.
Still for that read-out and setting: the result for IAKHGKGRLGKQCRERWHNHLNPE [L5G] reads 2.04.
For the variant IAKHKKGRLGKQCRERWHNHLNPE [L5K], the protein stability index worked out at 2.49.
The same measure, in the same setting: the result for IAKHYKGRLGKQCRERWHNHLNPE [L5Y] reads 1.86; that for IAKHHKGRLGKQCRERWHNHLNPE [L5H], 2.51.
Still for that read-out and setting: the result for IAKELKGRLGKQCRERWHNHLNPE [H4E] reads 2.04; that for IAKYLKGRLGKQCRERWHNHLNPE [H4Y], 4.85.
Still for that read-out and setting: the result for IAKPLKGRLGKQCRERWHNHLNPE [H4P] reads 2.15.
Turning to IAKALKGRLGKQCRERWHNHLNPE [H4A], the protein stability index was determined as 2.33.
As for IAKTLKGRLGKQCRERWHNHLNPE [H4T], the protein stability index worked out at 1.87.
For IAKFLKGRLGKQCRERWHNHLNPE [H4F], the protein stability index was 2.52.
In the case of IAKNLKGRLGKQCRERWHNHLNPE [H4N], the protein stability index was 1.57.
On the same count and under the same terms, the result for IAKGLKGRLGKQCRERWHNHLNPE [H4G] reads 2.2; that for IAKCLKGRLGKQCRERWHNHLNPE [H4C], 3.5; that for IAKQLKGRLGKQCRERWHNHLNPE [H4Q], 2.27.
Turning to IAKSLKGRLGKQCRERWHNHLNPE [H4S], the protein stability index was found to be 1.73.
The same measure, in the same setting: next, IAKMLKGRLGKQCRERWHNHLNPE [H4M]: 1.83; IAKLLKGRLGKQCRERWHNHLNPE [H4L]: 2.33; IAKRLKGRLGKQCRERWHNHLNPE [H4R]: 2.17.
Still for that read-out and setting: the result for IAKKLKGRLGKQCRERWHNHLNPE [H4K] reads 2.12.
Take IAKVLKGRLGKQCRERWHNHLNPE [H4V]: the protein stability index came to 3.2.
As for IAKWLKGRLGKQCRERWHNHLNPE [H4W], the protein stability index came out at 1.76.
IAKDLKGRLGKQCRERWHNHLNPE [H4D]: the protein stability index was 2.74.
Still for that read-out and setting: next, IACHLKGRLGKQCRERWHNHLNPE [K3C]: 2.25; IAQHLKGRLGKQCRERWHNHLNPE [K3Q]: 2.96; IAVHLKGRLGKQCRERWHNHLNPE [K3V]: 2.9.
The same measure, in the same setting: next, IAYHLKGRLGKQCRERWHNHLNPE [K3Y]: 2.17; IANHLKGRLGKQCRERWHNHLNPE [K3N]: 1.8; IAMHLKGRLGKQCRERWHNHLNPE [K3M]: 1.81.
On the same count and under the same terms, the result for IATHLKGRLGKQCRERWHNHLNPE [K3T] reads 1.81; that for IASHLKGRLGKQCRERWHNHLNPE [K3S], 1.44.
In the case of IAWHLKGRLGKQCRERWHNHLNPE [K3W], the protein stability index was 1.95.
For the variant IALHLKGRLGKQCRERWHNHLNPE [K3L], the protein stability index is 2.34.
The same measure, in the same setting: next, IAPHLKGRLGKQCRERWHNHLNPE [K3P]: 1.93; IADHLKGRLGKQCRERWHNHLNPE [K3D]: 2.3.
The same measure, in the same setting: the result for IAGHLKGRLGKQCRERWHNHLNPE [K3G] reads 1.79.
With IAAHLKGRLGKQCRERWHNHLNPE [K3A], the protein stability index was found to be 2.84.
On the same count and under the same terms, next, IAHHLKGRLGKQCRERWHNHLNPE [K3H]: 2.32; IAIHLKGRLGKQCRERWHNHLNPE [K3I]: 1.51; IARHLKGRLGKQCRERWHNHLNPE [K3R]: 2.03.
On to IAFHLKGRLGKQCRERWHNHLNPE [K3F], for which the protein stability index is 2.46.
The same measure, in the same setting: next, IAEHLKGRLGKQCRERWHNHLNPE [K3E]: 2; ITKHLKGRLGKQCRERWHNHLNPE [A2T]: 2.37; IDKHLKGRLGKQCRERWHNHLNPE [A2D]: 2.15.
Still for that read-out and setting: next, IRKHLKGRLGKQCRERWHNHLNPE [A2R]: 2.53; IGKHLKGRLGKQCRERWHNHLNPE [A2G]: 1.95; INKHLKGRLGKQCRERWHNHLNPE [A2N]: 2.2.
Same read-out and setting: next, IYKHLKGRLGKQCRERWHNHLNPE [A2Y]: 1.76.
Consider IIKHLKGRLGKQCRERWHNHLNPE [A2I], for which the protein stability index is 1.59.
On to IHKHLKGRLGKQCRERWHNHLNPE [A2H], for which the protein stability index was determined as 2.04.
For the variant IMKHLKGRLGKQCRERWHNHLNPE [A2M], the protein stability index was 1.6.
Same read-out and setting: the result for ISKHLKGRLGKQCRERWHNHLNPE [A2S] reads 2.1; that for IPKHLKGRLGKQCRERWHNHLNPE [A2P], 1.75.
On to IEKHLKGRLGKQCRERWHNHLNPE [A2E], for which the protein stability index came out at 2.16.
In the case of IWKHLKGRLGKQCRERWHNHLNPE [A2W], the protein stability index turned out to be 1.64.
The same measure, in the same setting: the result for IQKHLKGRLGKQCRERWHNHLNPE [A2Q] reads 2.03; that for IVKHLKGRLGKQCRERWHNHLNPE [A2V], 1.53.
Consider IKKHLKGRLGKQCRERWHNHLNPE [A2K], for which the protein stability index came to 2.12.
With ILKHLKGRLGKQCRERWHNHLNPE [A2L], the protein stability index came to 3.74.
Still for that read-out and setting: next, ICKHLKGRLGKQCRERWHNHLNPE [A2C]: 1.8.
